Where a chain is given by its changes, count along the chain named.

Data set [1] concerns the target T1, RIG-I CTD (aa 792-925) (Homo sapiens) (UniProt O95786).
T1 sequence: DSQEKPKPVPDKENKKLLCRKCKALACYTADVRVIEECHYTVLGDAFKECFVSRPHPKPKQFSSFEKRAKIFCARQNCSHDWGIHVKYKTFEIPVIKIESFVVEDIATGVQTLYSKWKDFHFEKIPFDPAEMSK
Nature of the data set: EMSA. Conditions: J = PPdU at every J; SB18T0.01 + 20% glycerol, 1 mM DTT, 37 C.

Data set [2] addresses T2, RIG-I R664A (Homo sapiens) (UniProt O95786).
T2 sequence: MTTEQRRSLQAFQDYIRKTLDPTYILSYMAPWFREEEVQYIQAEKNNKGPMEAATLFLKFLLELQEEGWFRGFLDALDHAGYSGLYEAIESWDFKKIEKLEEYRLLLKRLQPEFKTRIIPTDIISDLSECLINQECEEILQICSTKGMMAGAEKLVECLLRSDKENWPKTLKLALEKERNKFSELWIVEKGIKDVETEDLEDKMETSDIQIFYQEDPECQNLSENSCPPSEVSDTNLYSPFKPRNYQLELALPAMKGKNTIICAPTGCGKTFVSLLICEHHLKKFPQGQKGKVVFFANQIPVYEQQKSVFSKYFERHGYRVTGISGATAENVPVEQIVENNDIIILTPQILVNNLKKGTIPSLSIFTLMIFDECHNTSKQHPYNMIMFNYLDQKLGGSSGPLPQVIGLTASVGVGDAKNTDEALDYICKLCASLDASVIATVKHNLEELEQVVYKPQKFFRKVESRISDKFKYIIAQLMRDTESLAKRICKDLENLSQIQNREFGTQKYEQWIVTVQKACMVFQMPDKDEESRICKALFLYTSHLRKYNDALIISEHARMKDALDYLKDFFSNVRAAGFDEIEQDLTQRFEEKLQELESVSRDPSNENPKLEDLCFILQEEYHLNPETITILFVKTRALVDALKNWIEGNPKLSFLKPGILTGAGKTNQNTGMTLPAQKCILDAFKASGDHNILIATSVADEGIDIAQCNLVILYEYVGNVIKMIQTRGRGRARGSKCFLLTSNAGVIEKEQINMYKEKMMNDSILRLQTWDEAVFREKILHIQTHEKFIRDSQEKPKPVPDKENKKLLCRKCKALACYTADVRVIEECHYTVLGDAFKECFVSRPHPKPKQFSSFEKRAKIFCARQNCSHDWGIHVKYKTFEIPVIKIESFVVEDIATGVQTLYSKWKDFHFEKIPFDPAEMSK
Briefly: filter. Conditions: J = PPdU at every J; SB18T0.01 + 1 mM DTT, 37 C.

In data set [3] the target is T3, RIG-I WT full-length (Homo sapiens) (UniProt O95786).
T3 sequence: T2 sequence with A664R
Briefly: filter. As to conditions: J = PPdU at every J; SB18T0.01 + 1 mM DTT, 37 C.

The target of data set [4] is T4, RIG-I K849A (Homo sapiens) (UniProt O95786).
T4 sequence: T2 sequence with A664R, K849A
Nature of the data set: filter. Conditions: J = PPdU at every J; SB18T0.01 + 1 mM DTT, 37 C.

Take “ATCTCTGTGTCATGTGTTTTAATGTCAGTTTAATGATGAGG [14832-55_8]”: the Kd in data set [1] worked out at 0.019 nM; in data set [2], 0.41 nM; in data set [3], 0.56 nM; in data set [4], 0.62 nM.

Values taken from patent publication US20220333113.
